Experimental data reported in the supplement of paper PMC10567573.

B1: RSPH3 (parent)
chain: FIPAKTGKDVATQILEGELFDFDL

Variants of: B1
Assay: protein stability index of a GFP-peptide fusion (GPS, HEK-293T) (PSI 1-6); higher = more stable
Settings: c terminus: a fixed tail appended
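Also: lentivirally expressed fusions sorted by FACS into six bins by GFP to DsRed ratio, PSI derived from sequencing read proportions per bin multiplied by bin number.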

Protein stability index, by site and new letter:
V10: H 1.82; W 2.75; N 2.12; L 2.63; Q 1.82; S 1.29; P 1.61; Y 1.99; M 1.58; T 2.08; D 2.28; G 1.98; E 2.52; R 1.58; A 1.84; F 1.9; I 2.95; K 1.54; C 1.67
I2: N 2.83; G 3.73; S 2.84; Y 2.96; D 4.39; P 3.04; H 2.02; V 2.26; E 4.16; C 1.55; Q 3.04; F 2.86; R 3.72; L 3.02; M 3.26; W 2.3; K 3.86; A 1.79; T 2.85
E16: S 2.76; I 2.24; Q 1.7; F 3.82; T 1.63; A 1.46; M 3.38; K 2.11; W 2.07; G 2.34; R 2.46; L 1.73; N 2.34; Y 2.01; V 2.04; D 1.86; P 1.8; H 1.32; C 2.32
Q13: K 1.78; G 2.65; V 2.55; C 2.9; T 1.99; A 1.43; N 1.97; R 1.58; M 1.67; L 2.38; W 1.95; F 2.07; P 1.95; D 2.08; E 1.65; S 2.32; Y 2.09; I 2.43; H 2.62
K8: A 2.13; Q 2.1; I 1.74; T 1.6; Y 2.27; R 2.37; L 2.44; F 1.32; H 1.9; D 2.22; P 2.15; E 2.43; N 2.06; S 1.93; C 2.58; V 2.52; G 1.71; M 1.63
A4: F 2.33; I 1.62; P 1.55; V 2.28; H 1.62; T 1.96; G 2.48; D 2.25; C 2.08; Y 1.54; S 1.64; M 2.74; E 2.51; W 1.6; L 2.09; K 1.9; N 2.35; Q 2.05
F1: T 4.34; Q 4.69; K 4.24; H 4.32; L 3.56; N 4.98; P 4.33; Y 1.9; D 4.77; E 5.01; G 4.84; M 3.93; I 3.89; V 3.54; S 4.66; W 2.66; R 4.15
D9: Y 2.06; G 2.23; C 2.43; V 2.29; N 3.27; E 1.81; F 2.59; T 1.77; Q 1.68; R 2.06; L 2.77; I 1.42; P 1.78; A 1.25; K 1.65; H 2.03; W 3.31; S 1.82
I14: F 1.74; S 1.41; V 2.2; Y 2.47; P 2.21; R 1.55; M 2.75; N 1.57; T 2.79; Q 1.79; D 2.94; H 2.05; G 1.49; W 2.71; C 1.99; E 2.09; L 2.27; K 1.72; A 2.07
A11: V 1.94; I 2; Y 4.25; Q 1.73; L 1.27; C 2; N 1.68; K 2.24; P 1.78; M 1.53; T 1.91; S 1.87; E 2.35; G 2.04; H 1.8; D 2.48; R 2.2; F 2.13
T12: I 1.85; G 1.7; P 1.8; M 2.18; Y 1.92; E 2.04; V 2.98; R 2.55; Q 1.92; D 1.56; F 2.73; N 1.89; C 2.02; S 1.82; A 2.18; L 2.18; K 1.49; H 1.43; W 3.27
K5: R 1.75; A 1.77; F 2.46; Q 2.21; E 2.95; L 1.85; Y 1.88; D 2.66; M 1.87; C 1.87; W 1.57; G 1.97; V 1.72; H 1.92; N 2.71; S 2.01; P 2.22; I 1.63; T 2.15
T6: V 1.6; M 1.59; W 1.9; H 1.82; N 1.91; C 1.29; E 2.43; I 2.53; P 1.42; R 1.71; A 2; F 2.08; L 1.87; S 1.71; K 2.22; G 2.12; D 2.46; Y 1.64; Q 1.64
G17: R 2.15; M 1.71; H 2.34; Q 2.26; Y 2.06; L 1.48; N 1.32; E 3; K 1.93; T 2.11; C 2.54; I 2.31; V 2.75; S 1.56; P 1.37; A 2.14; D 1.75; W 1.95; F 2.72
G7: E 2.08; Q 1.97; Y 1.88; A 1.83; L 2.12; R 1.82; H 2.08; V 2.2; S 2.08; T 1.77; P 2.82; M 1.43; K 2.03; D 2.46; C 1.79; I 1.96; F 1.45; N 1.85; W 2.83
L15: N 2; T 1.66; E 2.79; Q 1.96; W 2.75; H 2.12; F 2.18; Y 1.76; G 1.89; V 1.94; R 2.75; A 1.74; P 2.02; S 2.03; K 2.07; I 1.87; M 2.03; C 1.85; D 2.58
P3: E 2.83; F 2.2; G 2.5; Y 1.52; A 2.27; M 1.6; S 2.56; C 1.72; K 2.4; H 1.85; R 1.94; N 2.24; W 2.43; I 1.97; T 2.24; V 1.59; L 2.71; D 2.63; Q 2.5
E18: F 3.44; T 2.62; V 2.46; N 2.38; I 2.6; M 2.73; G 1.71; H 2; R 2.46; D 2.04; L 2.42; A 1.74; P 1.87; C 2.17; K 2.2; S 2; Q 2.06
